The chains are these.
B1: PtxS (natural protein)
chain: MNGSVLPSRGRVTINQVAEAAGVSKASVSRYIGGDRQLLADATARRIERAIDQLDYRPNQMARGLKRGRTRLIGMLVADILNPYSVAVMHGVETACREHGYSLVVCNTDRDDEQERHHLAALQSYNVEGLIVNTLGHHPGELRALHRELPMVLVDRQLAELDTDLVGLDNADAVEQALDHLQHRGFRDILLVTEPLDGTSSRIERVQAFNASIGRRPALKGQVLQTDDFFRDGLRAFLSASGPGPKALFTCNGVATLCATRQLRDLGCRLFDEVGLLALDELDWYPLVGSGITALAQPTDEIGRTAFERLLARLEGDREPARRVTFPAQLIVRGSTHPRG
notes: PtxS, LacI family transcriptional regulator of Pseudomonas aeruginosa PAO1; ptxS gene amplified from chromosomal DNA and cloned NheI/XhoI into pET24b(+); The NheI/XhoI cloning into pET24b(+) may add a few vector residues at both ends; source: E. coli BL21 (DE3), purified (His-Trap chelating column); not shown: His6, C-terminal, kept
B2: PtxR (natural protein)
chain: MSAALERLNHLNLNHLYAFVAVAEHNSFTAAAEALGLSKSLLSEQLRRLEADLGIQLLTRTTRRMTLTDRGELLFGVAQRMLGELDGALSDVRDLQGEPSGRLRITAPQDFVKWHISSVSAAFIRQFPKVQVEMLADDQFSDLVGQRIDLAVRIGWPRDSGLHASKLCDFQQVAVATPGYLAGLPPVLQPHDLARCEWIGHTRLSTPWTWTFERQRERATVQTRGRLLANNTLAVYRLVLDGAGVSVLPSFLVAREIARGRLVRLLPGWRLPQGGIYALYPSARYMPVRVRAFIESLREHLGREPFRLAQSE
notes: PtxR, LysR-type transcriptional regulator of Pseudomonas aeruginosa PAO1; ptxR gene amplified from chromosomal DNA and cloned NheI/XhoI into pET24b(+); The NheI/XhoI cloning into pET24b(+) may add a few vector residues at both ends; source: E. coli BL21 (DE3), purified (His-Trap chelating column); not shown: His6, C-terminal, kept

The target of data set [1] is T1, PtxR (Pseudomonas aeruginosa PAO1) (UniProt P72131).
T1 sequence: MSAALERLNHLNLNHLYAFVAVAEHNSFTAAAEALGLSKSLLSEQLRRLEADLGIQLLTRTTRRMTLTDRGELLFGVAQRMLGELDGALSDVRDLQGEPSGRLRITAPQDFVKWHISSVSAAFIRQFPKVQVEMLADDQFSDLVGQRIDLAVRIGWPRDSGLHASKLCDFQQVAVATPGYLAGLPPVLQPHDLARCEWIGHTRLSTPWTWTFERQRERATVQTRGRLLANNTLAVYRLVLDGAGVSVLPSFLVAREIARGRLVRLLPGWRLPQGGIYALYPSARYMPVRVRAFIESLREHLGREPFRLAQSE
The data set is described as follows: EMSA. The conditions noted are these: ITC: 50 mM HEPES pH 7.9, 300 mM NaCl, 1 mM DTT, 10% glycerol, 20 C. EMSA/footprint: 50 mM Tris-HCl pH 7.5, 10 mM NaCl, 0.5 M Mg acetate (so in the source), 0.1 mM ….

In data set [2] the target is T2, PtxS (Pseudomonas aeruginosa PAO1) (UniProt G3XD97).
T2 sequence: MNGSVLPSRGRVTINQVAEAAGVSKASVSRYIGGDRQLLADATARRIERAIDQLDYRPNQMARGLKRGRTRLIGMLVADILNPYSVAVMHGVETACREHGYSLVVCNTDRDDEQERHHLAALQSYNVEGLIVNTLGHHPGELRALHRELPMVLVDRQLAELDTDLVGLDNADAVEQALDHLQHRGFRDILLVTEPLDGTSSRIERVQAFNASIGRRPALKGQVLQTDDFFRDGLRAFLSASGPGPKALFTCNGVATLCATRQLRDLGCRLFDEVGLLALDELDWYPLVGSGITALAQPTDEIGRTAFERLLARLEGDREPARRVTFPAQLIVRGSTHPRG
The data set is described as follows: EMSA. The conditions noted are these: ITC: 50 mM HEPES pH 7.9, 300 mM NaCl, 1 mM DTT, 10% glycerol, 20 C. EMSA/footprint: 50 mM Tris-HCl pH 7.5, 10 mM NaCl, 0.5 M Mg acetate (so in the source), 0.1 mM …. In general terms: Mobility shift assays separate free from complexed probe on a gel.

In data set [3] the target is T1, PtxR (Pseudomonas aeruginosa PAO1). Briefly: DNase I footprinting. The conditions noted are these: ITC: 50 mM HEPES pH 7.9, 300 mM NaCl, 1 mM DTT, 10% glycerol, 20 C. EMSA/footprint: 50 mM Tris-HCl pH 7.5, 10 mM NaCl, 0.5 M Mg acetate (so in the source), 0.1 mM ….
In data set [4] the target is T3, PtxR;PtxS (Pseudomonas aeruginosa PAO1;Pseudomonas aeruginosa PAO1) (UniProt P72131+G3XD97).
T3 sequence 1: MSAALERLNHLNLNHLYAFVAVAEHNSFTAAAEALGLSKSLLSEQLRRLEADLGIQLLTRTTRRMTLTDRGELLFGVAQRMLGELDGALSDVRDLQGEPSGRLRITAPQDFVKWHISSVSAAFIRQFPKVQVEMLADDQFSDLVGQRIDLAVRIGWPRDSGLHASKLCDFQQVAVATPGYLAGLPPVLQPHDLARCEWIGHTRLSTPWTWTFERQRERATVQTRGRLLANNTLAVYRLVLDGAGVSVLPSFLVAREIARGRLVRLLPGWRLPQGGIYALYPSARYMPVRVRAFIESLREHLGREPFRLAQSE
T3 sequence 2: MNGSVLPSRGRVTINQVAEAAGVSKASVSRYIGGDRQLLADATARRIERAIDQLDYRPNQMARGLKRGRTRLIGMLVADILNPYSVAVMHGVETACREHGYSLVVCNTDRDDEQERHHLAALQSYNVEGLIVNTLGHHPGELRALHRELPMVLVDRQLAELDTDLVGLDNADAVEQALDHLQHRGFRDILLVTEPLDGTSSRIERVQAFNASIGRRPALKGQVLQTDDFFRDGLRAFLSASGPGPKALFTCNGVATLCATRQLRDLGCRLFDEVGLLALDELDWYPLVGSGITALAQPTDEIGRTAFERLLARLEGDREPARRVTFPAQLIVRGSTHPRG
The data set is described as follows: DNase I footprinting. The conditions noted are these: ITC: 50 mM HEPES pH 7.9, 300 mM NaCl, 1 mM DTT, 10% glycerol, 20 C. EMSA/footprint: 50 mM Tris-HCl pH 7.5, 10 mM NaCl, 0.5 M Mg acetate (so in the source), 0.1 mM ….

Data set [5] deals with T2, PtxS (Pseudomonas aeruginosa PAO1). Briefly: DNase I footprinting. The conditions noted are these: ITC: 50 mM HEPES pH 7.9, 300 mM NaCl, 1 mM DTT, 10% glycerol, 20 C. EMSA/footprint: 50 mM Tris-HCl pH 7.5, 10 mM NaCl, 0.5 M Mg acetate (so in the source), 0.1 mM ….
Data set [6] concerns the target B2. The data set is described as follows: ITC; free proteins; 50 µM PtxS in 3.2 µl aliquots into PtxR (3 µM by the legend); 20°C, 50 mM HEPES pH 7.9, 300 mM NaCl, 1 mM dithiothreitol, 10% glycerol; two binding site model. The conditions noted are these: both partners purified. (In general: In ITC the heat of successive injections is recorded.)
The target of data set [7] is B2. The data set is described as follows: ITC; 5 µM PtxR saturated beforehand with 50 µM duplex DNA of P_(toxA) holding the PtxR operator, titrated with 50 µM PtxS; 20°C, 50 mM HEPES pH 7.9, 300 mM NaCl, 1 mM dithiothreitol, 10% glycerol; two binding site model. The conditions noted are these: both partners purified.
The target of data set [8] is B1. Briefly: native gel or EMSA; native polyacrylamide gel, 10 µM homogeneous PtxS, PtxR or both mixed, 1 h at 120 V, Coomassie stain, confirmed by western blot with an anti-His tag antibody. The conditions noted are these: both partners purified.
The target in data set [9] is PtxR K39A (Pseudomonas aeruginosa PAO1, UniProt P72131 1-312, K39A). The data set is described as follows: ITC; ITC: 50 mM HEPES pH 7.9, 300 mM NaCl, 1 mM DTT, 10% glycerol, 20 C. EMSA/footprint: 50 mM Tris-HCl pH 7.5, 10 mM NaCl, 0.5 M Mg acetate (so in the source), 0.1 mM EDTA, 1 mM DTT, 5% glycerol, 30 C; EMSA with 20 ug/ml poly(dIC), 200 ug/ml BSA. The conditions noted are these: protein: recombinant; tags: C-terminal His6 (pET24b); chain copies: 4; blunt.

Data set [10] deals with T4, PtxS (Pseudomonas aeruginosa PAO1, UniProt G3XD97 1-340).
T4 sequence: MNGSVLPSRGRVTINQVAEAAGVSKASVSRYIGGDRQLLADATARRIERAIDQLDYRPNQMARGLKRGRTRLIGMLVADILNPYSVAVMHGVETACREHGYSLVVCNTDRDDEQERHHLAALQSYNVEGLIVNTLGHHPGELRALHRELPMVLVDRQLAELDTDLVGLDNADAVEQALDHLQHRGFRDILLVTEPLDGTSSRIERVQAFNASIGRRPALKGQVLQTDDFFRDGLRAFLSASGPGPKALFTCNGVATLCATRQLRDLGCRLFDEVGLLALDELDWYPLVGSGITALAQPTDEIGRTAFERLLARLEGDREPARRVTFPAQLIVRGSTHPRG
The description is as above. The conditions noted are these: protein: recombinant; tags: C-terminal His6 (pET24b); chain copies: 2; blunt.

The target in data set [11] is T5, PtxR (Pseudomonas aeruginosa PAO1, UniProt P72131 1-312).
T5 sequence: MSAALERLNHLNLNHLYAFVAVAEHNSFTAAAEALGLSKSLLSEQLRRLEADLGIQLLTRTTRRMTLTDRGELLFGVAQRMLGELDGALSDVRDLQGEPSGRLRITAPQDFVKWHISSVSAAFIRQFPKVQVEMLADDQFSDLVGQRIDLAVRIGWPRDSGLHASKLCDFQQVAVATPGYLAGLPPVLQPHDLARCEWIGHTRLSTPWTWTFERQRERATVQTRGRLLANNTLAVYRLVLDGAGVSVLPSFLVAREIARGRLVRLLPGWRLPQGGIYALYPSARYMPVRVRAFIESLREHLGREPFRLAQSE
The data set is described as above. The conditions noted are these: protein: recombinant; tags: C-terminal His6 (pET24b); chain copies: 4; blunt.

Data set [12] deals with PtxR R47A (Pseudomonas aeruginosa PAO1, UniProt P72131 1-312, R47A). The data set is described as above. The conditions noted are these: protein: recombinant; tags: C-terminal His6 (pET24b); chain copies: 4; blunt.
Data set [13] concerns the target PtxR D52A (Pseudomonas aeruginosa PAO1, UniProt P72131 1-312, D52A). Described as above. The conditions noted are these: protein: recombinant; tags: C-terminal His6 (pET24b); chain copies: 4; blunt.
Data set [14] deals with PtxR E44A (Pseudomonas aeruginosa PAO1, UniProt P72131 1-312, E44A). The data set is described as above. The conditions noted are these: protein: recombinant; tags: C-terminal His6 (pET24b); chain copies: 4; blunt.
For data set [15], the target named is PtxR S40A (Pseudomonas aeruginosa PAO1, UniProt P72131 1-312, S40A). The description is as above. The conditions noted are these: protein: recombinant; tags: C-terminal His6 (pET24b); chain copies: 4; blunt.

Regarding “CAACTGATCGTTCGCGGCTCGACCCATCCACGCGGCTAGCGGCCCGCCGCCGGCGCGTTGCCGGCGGCTTTCGCACGGCTTGAAATGAAACCGGTTTCAGAGGATCGCCAATGTCCCTTCACCCCGTCTCCATCAGTCTTTCCAGCTATGGCGCGGACCTCGTTCGCAGTCGCGGCCAGGCCAGCTTCCTGCCCTTGCTGGCGATGGCCGGCGCGCAGCGCGTGGAACTGCGCGAGGAACTCTTCGCCGGCCCGCCGGATACCGAGGCGCTGACCGCCGCCATCCAGTT (double strand) [Pkgu promoter fragment]”, the binding result in data set [1] and in data set [2] was “binds” in each case.
For the molecule “CCGTTGACGGCCTTGTCATCGGGCATGGTGGGGTCCTCTCTGGATCATCACGGTTTCGTCTTTCTGATAATGATTAGCAGGCTAATTATAAGTTCATGTGTCACGTTGAAAAAACGTTTCAGCAAGGATTCAGGCAGGCCAATACCGGCAAGTGAAGCAGAACGGCGCGCCGGGCGTCGGCCCGGCGCGGCCTTCAGGCGCCTCGCCGTCGCGCCCAGGCCGAAGGATTGACCAGGTTCAGCGGCC (double strand) [Pgad promoter fragment]”, the binding result in data set [1], in [2], in data set [3], in [4] and in data set [5] was “binds” throughout.
As a reminder, the stoichiometry N is the number of molecules, sites or subunits per partner or assembly. In the case of B1, in data set [6], the “KD of the first, high affinity event” value was determined as 12 ± 3 nM; the “KD of the second, lower affinity event” value came to 102 ± 10 nM; the “dH of the first, high affinity event” value is -17.8 ± 0.9 kcal/mol; the “dH of the second, lower affinity event” value is -9.1 ± 0.5 kcal/mol. The “stoichiometry N” value in data set [6] worked out at 1.02. Further, in data set [7], the “KD of the first event, PtxR bound to DNA” value was around 1.7 µM and the “KD of the second event, PtxR bound to DNA” value is around 8.2 µM.
B2: the binding result in data set [8] was “binds”.

B3: PtoxA 50-mer (-58 to -8) (dsDNA)
DNA 1: GATATCGGCTGCTGGCCAGGGGCGCCAGCGCCGACAGCCTCGTGCTTCAA
DNA 2: TTGAAGCACGAGGCTGTCGGCGCTGGCGCCCCTGGCCAGCAGCCGATATC
Usually Kd stands for the concentration at which binding is half-saturated. For the molecule B3, the binding result in data set [9], in data set [10], in [13], in data set [14] and in data set [15] was “no binding” each time. The equilibrium dissociation constant (Kd) in [11] worked out at 164 ± 6 nM; in data set [12], 240 ± 11 nM.

B4: PtoxA 50-mer mutant operator (dsDNA)
DNA 1: GATATCGGCTGCTGGCCAGGCCGACAGCCTCGTGCTTCAA
DNA 2: TTGAAGCACGAGGCTGTCGGCCTGGCCAGCAGCCGATATC
B4: the binding result in data set [11] is listed as “no binding”.

For the origin of these results see paper PMC3402500, “Genes for Carbon Metabolism and the ToxA Virulence Factor in Pseudomonas aeruginosa Are Regulated through Molecular Interactions of PtxR and PtxS” (PLoS ONE, 2012).
